# Measurements: the nanobody polyreactivity screen of Harvey et al. (2022)
# Experiment: yeast display, Sf9 membrane polyspecificity reagent, FACS + sequencing; frameworks hold sequencing errors
# Summary of the method: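 Synthetic nanobody libraries on Saccharomyces cerevisiae BJ5465 were galactose-induced for 36–48 hours, stained 1 hour at 4 °C with 10% biotinylated, detergent-solubilized Sf9 membrane reagent and enriched on streptavidin microbeads. FACS then separated cells into low and high (top ~1%) gates by anti-HA (expression) and streptavidin (reagent binding) fluorescence. Genes were colony-PCR amplified, MiSeq 2 × 250 sequenced and CDR-length filtered. A clone's polyreactivity label is that of its gate of origin.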
row,Sequence,polyreactivity (PSR sort gate)
1,QVQLVESGGGLVQAGGSLRLSCAASGITLYFYAMGWYRQAPGKERELVAGISGSVGSTHYADSVKGRFTISRDNAKNTVYLQMNSLKPEDTAVYYCAARYPFLRPKVNYWGQGTQVTVSS,high polyreactivity
2,QVQLVESGGGLVQAGGSLRLSCAASGITLYGYAMGWYRQAPGKEREFVAAISRSGDRTYYADSVKGRFTISRDNAKNTVYLQMNSLKPEDTAVYYCNAWRYDYWGQGTQVTVSS,high polyreactivity
3,QVQLVESGGGLVQAGGSLRLSCAASGITLYRYVMGWYRQAPGKERELVADISGRGTSTYYADSVKGRFTISRDNAKNTVYLQMNSLKPEDTAVYYCNAEYTKTGALVIPYTYYYAEDYWGQGTQVTVSS,low polyreactivity
4,QVQLVESGGGLVQAGGSLRLSCAASGITLYYYTMGWYRQAPGKERELVAAISGSGGSTYYADSVKGRFTISRDNAKNTVYLQMNSLKPEDTAVYYCNTARSLKNHFYKYDYWGQGTQVTVSS,high polyreactivity
5,QVQLVESGGGLVQAGGSLRLSCAASGITSQSYAMGWYRQAPGKERELVAGISASGGRTFYADSVKGRFTISRDNAKNTVYLQMNSLKPEDTAVYYCNKLSSDSYNYWGQGTQVTVSS,high polyreactivity
6,QVQLVESGGGLVQAGGSLRLSCAASGITSSAYAMGWYRQAPGKERELVARITWSGGRTHYADSVKGRFTISRDNAKNTVYLQMNSLKPEDTAVYYGYWLGYKEDDYWGQGTQVTVSS,high polyreactivity
7,QVQLVESGGGLVQAGGSLRLSCAASGITSSRYAMGLYRQAPGKVRELVAAISSSGGSTYYADSVKGRFTSSRDNAKTTVYLQLISLKPEDTAVYYCNVVSTRLAKYTFGFWGQGTQVTVSS,high polyreactivity
8,QVQLVESGGGLVQAGGSLRLSCAASGITSYPYAMGWYRQAPGKERELVAAISKRGGGTYYADSVKGRFTISRDNAKNTVYLQMNSLKPEDTAVYYCAKSWGPTTYKIVPAYGYWGQGTQVTVSS,high polyreactivity
9,QVQLVESGGGLVQAGGSLRLSCAASGITYDKYAMGWYRQAPGKERELVAAITKSSGSTYYADSVKGRFTISRDNAKNTVYFQMNSLKPEDTAVYYCAAGIVYGYYYWGQGTQVTVSS,high polyreactivity
10,QVQLVESGGGLVQAGGSLRLSCAASGIYGYNAMGWYRQAPGKERELVAAITSSGTSTYYADSVKGRFTISRDNAKNTVYLQMNSLKPEDTAVYYCAALHSGTWTGYGYWGQGTQVTVSS,low polyreactivity
11,QVQLVESGGGLVQAGGSLRLSCAASGLALGWYRQAPGKERELVAVITSDGRTYYADSVKGRFTISRDNAKNTVYLQLNSLKPEDTAVYYCARDSRTIRYYAWFYPFRYDYWGQGTQVTVSS,low polyreactivity
12,QVQLVESGGGLVQAGGSLRLSCAASGLFFSYYAMGWYRQAPGKERELVAAINSGGSTYYADSVKGRFTISRDNAKNTVYLQMNSLKPEDTAVYYCAAHLWYHGHLFDYWGQGTQVTVSS,high polyreactivity
13,QVQLVESGGGLVQAGGSLRLSCAASGLICGFYAMGWYRQAPGKERELVADITTSGARTYYADSVKGRFTISRDNAKNTVYLQMYSLKPEDTAVYYCNKDHSSYGASGYDYWGQGTQVTVSS,low polyreactivity
14,QVQLVESGGGLVQAGGSLRLSCAASGLICTYYAMGWYRQAPGKEWEFVAGISKSTSSTYYADSVKGRFTISRDNAKNTVYLLMISLKPEDTAVYYCAAQGGRNRGYRYYWGQGTQVTLSS,high polyreactivity
15,QVQLVESGGGLVQAGGSLRLSCAASGLIFADNAMGWYRQAPGKEWELVASITLGDTSTYYADSVKGRFTISRYNAKNTVYLQMNSLKPEDTAVYYCAKDVYPSVSLYELPDDYWGQGTQVTVSS,low polyreactivity
16,QVQLVESGGGLVQAGGSLRLSCAASGLIFADYVMGWYRQAPGKERELVVTINQGGGSTYYADSVKGRFTISRDNAKNTVYLQMNSLKPEDTAVYYCAATWALLYAIFESYDYWGQGTQVTVSS,low polyreactivity
17,QVQLVESGGGLVQAGGSLRLSCAASGLIFAINAMGWYRQAPGKEREMVAAIRWSGDSTYADSVKGRFTISRDNAKNTVYLQMNSLKREDTAVYYCAADDLLDYDYWGQGTQVTVSS,low polyreactivity
18,QVQLVESGGGLVQAGGSLRLSCAASGLIFAYAMGWYRQAPGTERELVAAISGRDGSTYYADSVKGRFTISRDNAKNTVYLQMNSLKPEDTAVYYCAKRISYLPVEMDYWGQGTQVTVSS,low polyreactivity
19,QVQLVESGGGLVQAGGSLRLSCAASGLIFDCYARGWYRQAPGKERELVAAITYTGGSTYYADSVKGRFTISRDNAKNTDYIQMNSLKPEDTAVYYCAARRQRDRYGYWGQGTQVTVSS,high polyreactivity
20,QVQLVESGGGLVQAGGSLRLSCAASGLIFDSYAMGWYRQAPGKERELVAAITYTGGSTYYADSVKGRFTISRDNAKNTVYLQMNSLKPEDTAVYYCAARRQRDRYGYWGQGTQVTVSS,high polyreactivity
21,QVQLVESGGGLVQAGGSLRLSCAASGLIFFFYAMGWYRQAPGKERELVAAISSGGTTNYADSVKGRFTISRDNAKNTVYLQMNSLKPEDTAVYYCAARPSTYWSLGQHYGISGYWGQGTQVTVSS,low polyreactivity

row,Sequence,polyreactivity (PSR sort gate)
1,QVQLVESGGGLVQAGGSLRLSCAASGLIFFFYAMGWYRQAPGKERELVASISGGGITYYADSVKGRFTISRDNAKNTVYLQMNSLKPEDTAVIKNDYWGQGTQVTVSS,low polyreactivity
2,QVQLVESGGGLVQAGGSLRLSCAASGLIFGAYTMGWYRQAPGKERELVASITTSGDSTYYADSVKGRFTISRDNAKNTVYLQMNSLKPEDTAVYYCAAESTVGTDLGGDSWGQGTQVTVSS,high polyreactivity
3,QVQLVESGGGLVQAGGSLRLSCAASGLIFGEYDMGWYRQAPGKERELVAAISDRGTSTYYADSVKGRFTISRDNAKNTVYLQMNSLKPEDTAVYYCATDRNYYYSWEYDYWGQGTQVTVSS,low polyreactivity
4,QVQLVESGGGLVQAGGSLRLSCAASGLIFGGNAMGWYRQAPGKERELVAAISRSTGRTYYADSVKGRFTISRDNAKNTVYLQMNSLKPEDTAVYYCNAVGYAFPSYDSWGQGTQVTVSS,high polyreactivity
5,QVQLVESGGGLVQAGGSLRLSCAASGLIFGRYAMGWYRQAPGKERELVAAITGRGGSTYYADSVKGRFTISRDNAKNTVYLQMNSLKPEDTAVYYCNKVYNPKSYIQYDYWGQGTQVTVSS,high polyreactivity
6,QVQLVESGGGLVQAGGSLRLSCAASGLIFGSNAMGWYRQAPGKERELVAGISGSGEHYVLRRSVKGRVTISRDNAKNTVYVPMNSLKPEDTAVYYCATYSQSSKGPAGYDYWGQGTHVTVSS,high polyreactivity
7,QVQLVESGGGLVQAGGSLRLSCAASGLIFGTNAMGWYRQAPGKERELVAAISGSGGRTYYADSVKGRFTISRDNAKNTVYLQMNSLKPEDTAVYYCAADYVYGTRDDYWGQGTQVTVSS,high polyreactivity
8,QVQLVESGGGLVQAGGSLRLSCAASGLIFGWYAMGWSRQAPGKEREFVASIRYGGGSTYYADSVKGRFTISRDYAKNTVYLQMNSLKPEDTAVYYCAADRYPWHLQYVEYDSDYWGQGTQVTVSS,low polyreactivity
9,QVQLVESGGGLVQAGGSLRLSCAASGLIFGYNAMGWYRQAPGKESELVAAISSSGGSTSYADSVKGRFTISRDNAKNTVYLQMNSLKPEDTAVYYCAAKPGRYADYDYNSWGQGTQVTVSS,low polyreactivity
10,QVQLVESGGGLVQAGGSLRLSCAASGLIFGYYAMGWYRQAPGKERELVARITRRGGSTYYADSVKGRFTISRDNAKNTVYLQMNSLKPEDTAVYDCAADWYSPRISREYDYWGQGTQVTVSS,high polyreactivity
11,QVQLVESGGGLVQAGGSLRLSCAASGLIFIVNAMGWYRQAPGKDRELVAAISSGGSTNYADSVKGRFTISRDNAKNTVYLQMNSLKPEDTAVYYCNAGRGPITQNVGSLAYRSDYWGQGTQVTVSS,low polyreactivity
12,QVQLVESGGGLVQAGGSLRLSCAASGLIFKFYAMGGYRQAAGKERELVARISSSGGSTYYADSVKGRFTISRDNAKNTVYLQMNSLKPEDTAVYYCAAGAYYVERYARSSIFSYYYWGQGTQVTVSS,high polyreactivity
13,QVQLVESGGGLVQAGGSLRLSCAASGLIFKNNAMGWYRQAPGKERELVAAIDSIGGSTYYADSVKGRFTISRDNAKNTVYLQMNSLKPEDTAVYYCATDYYFYPHSQYDYWGQGTQVTVSS,low polyreactivity
14,QVQLVESGGGLVQAGGSLRLSCAASGLIFKSNAMGWYRQAPGKERELVAAITRTGGSTYYADSVKGRFTISRDNAKNTVYLQMNSLKPEDTAVYYCAKVVGRWRSSWELDYWGQGTQVTVSS,high polyreactivity
15,QVQLVESGGGLVQAGGSLRLSCAASGLIFKSYVMGWYRQSPGKERELVAGITGSGGTTYYADSVKGRFTISRDNAKNTVYLQMNSLKPEDTAVYYCAAVFETGAGGFYYTLQYDSWGQGTQVTVSS,high polyreactivity
16,QVQLVESGGGLVQAGGSLRLSCAASGLIFKYYALGWYRQAPGKERELVAAMSWSGGSTYYADSVKGRFTISRDTAKNTVYLQMNSLKPEDTAVYYCAADSWIYSYSALSIYDYWGQGTQVTVSS,high polyreactivity
17,QVQLVESGGGLVQAGGSLRLSCAASGLIFLDYAMGWYRQAPGKERELVAAISSSGGRTYYADSVKGRFTISRDNAKNTVYLQMNSLKPEDTAVYYCATGPNSYDYWGQGTQVTVSS,high polyreactivity
18,QVQLVESGGGLVQAGGSLRLSCAASGLIFLHNAMGWYRQAPGKERELVAAIRDGDSTNYADSVKGRFTISRDNAKNTVYLQMNSLKPEDTAVYYCAKDPTLVAYAPGRYDYWGQGTQVTVSS,low polyreactivity
19,QVQLVESGGGLVQAGGSLRLSCAASGLIFLRNSMGLDRTAPGKERELVAAISRSGGSTYYADSVKGRFTISRDSAKYSGYLQMNSLKPVDTAVYYCAKYGYGGVIPGPDHFDYWVQGTQVTVSS,high polyreactivity
20,QVQLVESGGGLVQAGGSLRLSCAASGLIFLSYGMGWYRQAPGKERELVAAISSGGSTYYADSVKGRFTISRDNAKNTVYLQMNSLKPEDTAVYYCAAEQPIEFDHWGQGTQVTVSS,low polyreactivity
